Results reported in US20220251236A1 (Boehringer Ingelheim, published 2022).

Columns and labels:
Human CD3 E+G HuFc-6xHis = molecular target: T1, Human CD3 E+G HuFc-6xHis (human); assay: SPR (ProteOn XPR36), HuCD3E_HuCD3G-Fc amine-coupled, bispecific as analyte, Example 4B
T1 construct: also called hu CD3εγ-Fc
Procedure: (§1) The binding affinity of purified DLL3/CD3 bispecific constructs for recombinant human DLL3-ECD and Fc-fusion protein of human CD3 εγ subunits was determined by Surface Plasmon Resonance (SPR), using a ProteOn XPR36 instrument (Bio-Rad).
For binding kinetic determination to CD3, HuCD3E_HuCD3G-Fc (dissolved in pH 4.5 acetate) was immobilized directly onto the sensor surface through amine coupling for 360 sec at a flowrate of 30 μl/min vertically. The baseline was stabilized by injecting PBS-T-EDTA for 60 sec at a flowrate of 30 μl/min horizontally. The analytes (all anti-DLL3/CD3 molecules) were injected horizontally over the captured antibody for 600 sec at a flowrate of 30 μl/min and a dissociation for 1800 sec.

Human DLL3-His = molecular target: T2, Human DLL3-His (human, UniProt Q9NYJ7 27-492); assay: SPR (ProteOn XPR36), bispecific captured on protein A/G, hu DLL3 as analyte, Example 4B
T2 construct: also called huDLL3-His; hu DLL3
T2 sequence: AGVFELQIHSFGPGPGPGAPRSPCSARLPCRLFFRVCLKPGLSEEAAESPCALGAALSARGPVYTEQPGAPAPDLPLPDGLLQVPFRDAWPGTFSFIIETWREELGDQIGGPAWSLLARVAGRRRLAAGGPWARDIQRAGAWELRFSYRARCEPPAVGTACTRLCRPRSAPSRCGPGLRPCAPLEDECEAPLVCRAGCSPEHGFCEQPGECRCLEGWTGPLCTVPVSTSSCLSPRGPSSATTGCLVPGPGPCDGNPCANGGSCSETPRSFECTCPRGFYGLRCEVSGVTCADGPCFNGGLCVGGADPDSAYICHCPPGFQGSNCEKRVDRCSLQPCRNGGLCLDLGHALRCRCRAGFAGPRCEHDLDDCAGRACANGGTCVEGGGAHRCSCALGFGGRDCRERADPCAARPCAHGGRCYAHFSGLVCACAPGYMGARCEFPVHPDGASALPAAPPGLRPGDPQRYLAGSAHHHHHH
Procedure: as §1
For binding kinetic determination to DLL3, anti-DLL3/CD3 molecules were captured individually on the protein A/G surface vertically for 200 sec at a flowrate of 30 μl/min. The baseline was stabilized by injecting PBS-T-EDTA for 60 sec at a flowrate of 30 μl/min horizontally. The analyte (hu DLL3) was injected horizontally over the captured antibody for 300 sec at a flowrate of 30 μl/min and a dissociation for 1800 sec.

EGF3+4 = molecular target: T3, EGF3+4; assay: flow cytometry on HEK293 cells expressing the DLL3 subdomain construct, PE anti-human secondary, control: secondary antibody only
T3 construct: also called Hu DLL3 EGF3+4 on HEK293 cells
T3 membrane-anchored DLL3 subdomain construct: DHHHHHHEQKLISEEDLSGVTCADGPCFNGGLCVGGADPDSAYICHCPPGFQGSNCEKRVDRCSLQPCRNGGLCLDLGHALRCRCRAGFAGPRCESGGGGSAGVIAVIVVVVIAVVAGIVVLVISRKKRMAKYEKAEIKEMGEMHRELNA
Procedure: (§2) DLL3/CD3 binding proteins were produced by transient transfection of CHO-E cells with the pTT5 vectors carrying the chain-encoding genes, as described in Example 2. […] Bound molecules were detected with PE-conjugated anti-human secondary antibody (Sigma-Aldrich, #P8047). As negative control, cells were incubated with secondary antibody only.
(§3) The samples were measured by flow-cytometry. […] The sequences of the epitope domains are listed in Example 5, Table 3.

EGF5+6 = molecular target: T4, EGF5+6; assay: as above
T4 construct: also called Hu DLL3 EGF5+6 on HEK293 cells
T4 membrane-anchored DLL3 subdomain construct: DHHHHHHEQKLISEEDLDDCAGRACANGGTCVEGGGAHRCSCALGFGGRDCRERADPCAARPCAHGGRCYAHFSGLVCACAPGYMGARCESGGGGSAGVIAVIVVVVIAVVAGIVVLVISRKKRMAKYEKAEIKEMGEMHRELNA
Procedure: as §2, §3

[1] = molecular target: T5, EGF6+MEMBRANE PROXIMAL PEPTIDE; assay: as above
T5 construct: also called Hu DLL3 EGF6+membrane proximal peptide on HEK293 cells
T5 membrane-anchored DLL3 subdomain construct: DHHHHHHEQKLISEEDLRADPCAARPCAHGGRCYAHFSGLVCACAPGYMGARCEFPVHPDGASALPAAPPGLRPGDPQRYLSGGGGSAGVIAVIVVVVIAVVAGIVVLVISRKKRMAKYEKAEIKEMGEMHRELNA
Procedure: as §2, §3

EGF1+2 = molecular target: T6, EGF1+2; assay: as above
T6 construct: also called Hu DLL3 EGF1+2 on HEK293 cells
T6 membrane-anchored DLL3 subdomain construct: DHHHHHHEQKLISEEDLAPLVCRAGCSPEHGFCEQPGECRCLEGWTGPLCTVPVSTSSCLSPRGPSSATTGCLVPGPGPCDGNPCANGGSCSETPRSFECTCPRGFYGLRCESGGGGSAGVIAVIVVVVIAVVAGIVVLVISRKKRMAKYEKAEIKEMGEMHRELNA
Procedure: as §2, §3

EGF4+5 = molecular target: T7, EGF4+5; assay: as above
T7 construct: also called Hu DLL3 EGF4+5 on HEK293 cells
T7 membrane-anchored DLL3 subdomain construct: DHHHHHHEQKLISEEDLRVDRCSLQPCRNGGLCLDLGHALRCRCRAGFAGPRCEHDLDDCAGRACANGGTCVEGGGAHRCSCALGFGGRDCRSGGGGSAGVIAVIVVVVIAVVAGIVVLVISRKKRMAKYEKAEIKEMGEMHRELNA
Procedure: as §2, §3

EGF2+3 = molecular target: T8, EGF2+3; assay: as above
T8 construct: also called Hu DLL3 EGF2+3 on HEK293 cells
T8 membrane-anchored DLL3 subdomain construct: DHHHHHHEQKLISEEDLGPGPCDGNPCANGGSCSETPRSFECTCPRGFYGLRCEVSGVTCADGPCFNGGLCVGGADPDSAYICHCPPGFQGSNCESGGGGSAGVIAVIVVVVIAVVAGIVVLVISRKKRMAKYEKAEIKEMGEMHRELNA
Procedure: as §2, §3

[2] = molecular target: T9, trypsin inhibitor from glycine max soybean (Glycine max (soybean)); assay: SPR (Biacore T200), trypsin inhibitor on CM5 chip, sample at 1 µM
T9 construct: also called Tryp
T9 sequence (P01070 25-205): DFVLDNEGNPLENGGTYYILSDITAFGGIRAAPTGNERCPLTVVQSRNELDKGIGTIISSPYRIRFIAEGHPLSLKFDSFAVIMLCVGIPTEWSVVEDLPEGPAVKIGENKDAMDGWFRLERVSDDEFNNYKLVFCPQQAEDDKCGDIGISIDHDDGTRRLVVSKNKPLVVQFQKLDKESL
Description: To prepare the surface for the non-specific binding experiment, chicken egg white lysozyme and trypsin inhibitor from glycine max soybean were coupled manually to a series S CM5 chip with the surface density of 3000-5000 RU using the amine coupling kit according to the manufacture instructions.

T1 sequence (chain, as listed by the source limits assumed): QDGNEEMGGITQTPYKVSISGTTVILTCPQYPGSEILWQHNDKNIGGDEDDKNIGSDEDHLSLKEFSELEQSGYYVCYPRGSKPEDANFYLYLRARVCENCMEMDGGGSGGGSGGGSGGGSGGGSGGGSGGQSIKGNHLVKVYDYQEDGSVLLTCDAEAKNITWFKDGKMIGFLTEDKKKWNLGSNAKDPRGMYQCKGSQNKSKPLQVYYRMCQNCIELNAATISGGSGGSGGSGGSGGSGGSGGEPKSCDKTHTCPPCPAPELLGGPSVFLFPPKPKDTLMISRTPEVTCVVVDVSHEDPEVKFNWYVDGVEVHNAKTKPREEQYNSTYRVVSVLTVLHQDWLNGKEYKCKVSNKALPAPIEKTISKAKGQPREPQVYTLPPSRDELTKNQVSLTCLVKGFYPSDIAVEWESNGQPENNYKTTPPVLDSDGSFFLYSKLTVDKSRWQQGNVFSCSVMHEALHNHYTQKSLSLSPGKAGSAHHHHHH

B1: DLL3#16/CD3#1 (bispecific antibody, human IgG1, kappa, lambda, L234A L235A)
chain 1: DIQMTQSPSTLSASVGDRVTITCRASQSVSDWLAWYQQKPGKAPKFLIYRASSLESGVPSRFSGSGSGTEFTLTISSLQPADFATYYCQLYNSYSPTFGQGTKVEIKRTVAAPSVFIFPPSDEQLKSGTASVVCLLNNFYPREAKVQWKVDNALQSGNSQESVTEQDSKDSTYSLSSTLTLSKADYEKHKVYACEVTHQGLSSPVTKSFNRGECGGGGSEGKSSGSGSESKSTEGKSSGSGSESKSTGGGGSEVHLVESGGGLVQPGGSLRLSCAASGFTFSSYWMTWVRQAPGKGLEWVANIKEDGSEKYYVDSVKGRFTISRDNAKNSLYLQMNSLRAEDTALYYCARDWGYFDYWGQGTLVTVSSASTKGPSVFPLAPSSKSTSGGTAALGCLVKDYFPEPVTVSWNSGALTSGVHTFPAVLQSSGLYSLSSVVTVPSSSLGTQTYICNVNHKPSNTKVDKRVEPKSCDKTHTCPPCPAPEAAGGPSVFLFPPKPKDTLMISRTPEVTCVVVDVSHEDPEVKFNWYVDGVEVHNAKTKPREEQYNSTYRVVSVLTVLHQDWLNGKEYKCKVSNKALPAPIEKTISKAKGQPREPQVYTLPPSREEMTKNQVSLWCLVKGFYPSDIAVEWESNGQPENNYKTTPPVLDSDGSFFLYSKLTVDKSRWQQGNVFSCSVMHEALHNHYTQKSLSLSPG
chain 2: EAVVTQEPSLTVSPGGTVTLTCRSSTGAVTTSNYANWVQEKPGQLPRGLIGGTNKRAPWVPARFSGSLLGGKAALTLSGAQPEDEAEYFCALWYSNLWVFGGGTKLTVLGQPKAAPSVTLFPPSSEELQANKATLVCLISDFYPGAVKVAWKADGSPVNTGVETTTPSKQSNNKYAASSYLSLTPEQWKSHRSYSCQVTHEGSTVEKTVAPAECSGGGGSEGKSSGSGSESKSTEGKSSGSGSESKSTGGGGSEVQLVESGGGLVQPGGSLKLSCAASGFTFNTYAMNWVRQAPGKGLEWVARIRSKYNNYATYYADSVKDRFTISRDDSKNTAYLQMNNLKTEDTAVYYCVRHGNFGNSYVSWFAYWGQGTLVTVSAASTKGPSVFPLAPSSKSTSGGTAALGCLVKDYFPEPVTVSWNSGALTSGVHTFPAVLQSSGLYSLSSVVTVPSSSLGTQTYICNVNHKPSNTKVDKRVEPKSCDKTHTCPPCPAPEAAGGPSVFLFPPKPKDTLMISRTPEVTCVVVDVSHEDPEVKFNWYVDGVEVHNAKTKPREEQYNSTYRVVSVLTVLHQDWLNGKEYKCKVSNKALPAPIEKTISKAKGQPREPQVYTLPPSREEMTKNQVSLSCAVKGFYPSDIAVEWESNGQPENNYKTTPPVLDSDGSFFLVSKLTVDKSRWQQGNVFSCSVMHEALHNRFTQKSLSLSPG
notes: Heterodimer of one DLL3 chain and one CD3 chain (scFab-Fc, knob-in-hole)
Kd (Human CD3 E+G HuFc-6xHis): 2 nM
Kd (Human DLL3-His): 0.228 nM
binding result (EGF3+4): no binding (tested: 1.6 nM)
binding result (EGF5+6): no binding (tested: 1.6 nM)
binding result [1]: no binding (tested: 1.6 nM)
binding result (EGF1+2): no binding (tested: 1.6 nM)
binding result (EGF4+5): no binding (tested: 1.6 nM)
binding result (EGF2+3): no binding (tested: 1.6 nM)
Non-specific binding (RU) [2]: 0 RU
